Test results: the MegaScale stability set (Tsuboyama et al. 2023)

B1: EEHEE_rd4_0469 (parent)
chain: ITIHVNGVTYHFDNPEEAEKFAQKMAKTYQLKMEIHNGEFHME

Variants of: B1
Test: folding stability dG (cDNA display proteolysis); higher = more stable
Conditions: PBS, room temperature

Variant	folding stability dG [kcal/mol]
ITIWVNGVTYHFDNPEEAEKFAQKMAKTYQLKMEIHNGEFHME	1.35
ITITVNGVTYHFDNPEEAEKFAQKMAKTYQLKMEIHNGEFHME	0.943
ITIMVNGVTYHFDNPEEAEKFAQKMAKTYQLKMEIHNGEFHME	0.82
ITINVNGVTYHFDNPEEAEKFAQKMAKTYQLKMEIHNGEFHME	0.813
ITIQVNGVTYHFDNPEEAEKFAQKMAKTYQLKMEIHNGEFHME	0.774
ITIIVNGVTYHFDNPEEAEKFAQKMAKTYQLKMEIHNGEFHME	0.994
ITIVVNGVTYHFDNPEEAEKFAQKMAKTYQLKMEIHNGEFHME	0.899
ITIHVNGVPYHFDNPEEAEKFAQKMAKTYQLKMEIHNGEFHME	1.51
ITIHVNGVMYHFDNPEEAEKFAQKMAKTYQLKMEIHNGEFHME	1.21
ITIHVNGVHYHFDNPEEAEKFAQKMAKTYQLKMEIHNGEFHME	1.11
ITIHVNGVYYHFDNPEEAEKFAQKMAKTYQLKMEIHNGEFHME	0.832
ITIHVNGVAYHFDNPEEAEKFAQKMAKTYQLKMEIHNGEFHME	1.39
ITIHVNGVLYHFDNPEEAEKFAQKMAKTYQLKMEIHNGEFHME	1.15
ITIHVNGVGYHFDNPEEAEKFAQKMAKTYQLKMEIHNGEFHME	1.11
ITIHVNGVQYHFDNPEEAEKFAQKMAKTYQLKMEIHNGEFHME	1.27
ITIHVNGVKYHFDNPEEAEKFAQKMAKTYQLKMEIHNGEFHME	1.51
ITIHVNGVFYHFDNPEEAEKFAQKMAKTYQLKMEIHNGEFHME	0.925
ITIHVNGVCYHFDNPEEAEKFAQKMAKTYQLKMEIHNGEFHME	1.86
ITIHVNGVSYHFDNPEEAEKFAQKMAKTYQLKMEIHNGEFHME	1.17
ITIHVNGVRYHFDNPEEAEKFAQKMAKTYQLKMEIHNGEFHME	1.4

Variant	folding stability dG [kcal/mol]
ITIHVNGVVYHFDNPEEAEKFAQKMAKTYQLKMEIHNGEFHME	1.25
ITIHVNGVNYHFDNPEEAEKFAQKMAKTYQLKMEIHNGEFHME	0.826
ITIHVNGVEYHFDNPEEAEKFAQKMAKTYQLKMEIHNGEFHME	0.827
ITIHVNGVWYHFDNPEEAEKFAQKMAKTYQLKMEIHNGEFHME	0.84
ITIHVNGVDYHFDNPEEAEKFAQKMAKTYQLKMEIHNGEFHME	0.639
ITIHVNGVIYHFDNPEEAEKFAQKMAKTYQLKMEIHNGEFHME	1.19
ITIHVNGVTKHFDNPEEAEKFAQKMAKTYQLKMEIHNGEFHME	0.307
ITIHVNGVTCHFDNPEEAEKFAQKMAKTYQLKMEIHNGEFHME	1.52
ITIHVNGVTSHFDNPEEAEKFAQKMAKTYQLKMEIHNGEFHME	-0.597
ITIHVNGVTNHFDNPEEAEKFAQKMAKTYQLKMEIHNGEFHME	-0.261
ITIHVNGVTQHFDNPEEAEKFAQKMAKTYQLKMEIHNGEFHME	-0.14
ITIHVNGVTLHFDNPEEAEKFAQKMAKTYQLKMEIHNGEFHME	0.756
ITIHVNGVTRHFDNPEEAEKFAQKMAKTYQLKMEIHNGEFHME	0.338
ITIHVNGVTTHFDNPEEAEKFAQKMAKTYQLKMEIHNGEFHME	0.067
ITIHVNGVTHHFDNPEEAEKFAQKMAKTYQLKMEIHNGEFHME	0.792
ITIHVNGVTMHFDNPEEAEKFAQKMAKTYQLKMEIHNGEFHME	0.573
ITIHVNGVTFHFDNPEEAEKFAQKMAKTYQLKMEIHNGEFHME	1.19
ITIHVNGVTEHFDNPEEAEKFAQKMAKTYQLKMEIHNGEFHME	-0.243
ITIHVNGVTAHFDNPEEAEKFAQKMAKTYQLKMEIHNGEFHME	0.111
ITIHVNGVTIHFDNPEEAEKFAQKMAKTYQLKMEIHNGEFHME	0.806

Variant	folding stability dG [kcal/mol]
ITIHTNGVTYHFDNPEEAEKFAQKMAKTYQLKMEIHNGEFHME	0.534
ITIHSNGVTYHFDNPEEAEKFAQKMAKTYQLKMEIHNGEFHME	0.42
ITIHINGVTYHFDNPEEAEKFAQKMAKTYQLKMEIHNGEFHME	1.14
ITIHANGVTYHFDNPEEAEKFAQKMAKTYQLKMEIHNGEFHME	0.938
ITIHCNGVTYHFDNPEEAEKFAQKMAKTYQLKMEIHNGEFHME	1.77
ITIHPNGVTYHFDNPEEAEKFAQKMAKTYQLKMEIHNGEFHME	-0.199
ITIHKNGVTYHFDNPEEAEKFAQKMAKTYQLKMEIHNGEFHME	0.112
ITIHNNGVTYHFDNPEEAEKFAQKMAKTYQLKMEIHNGEFHME	0.312
ITIHLNGVTYHFDNPEEAEKFAQKMAKTYQLKMEIHNGEFHME	0.899
ITIHENGVTYHFDNPEEAEKFAQKMAKTYQLKMEIHNGEFHME	0.203
ITIHRNGVTYHFDNPEEAEKFAQKMAKTYQLKMEIHNGEFHME	0.306
ITIHWNGVTYHFDNPEEAEKFAQKMAKTYQLKMEIHNGEFHME	1.2
ITIHYNGVTYHFDNPEEAEKFAQKMAKTYQLKMEIHNGEFHME	0.92
ITIHHNGVTYHFDNPEEAEKFAQKMAKTYQLKMEIHNGEFHME	0.711
ITIHMNGVTYHFDNPEEAEKFAQKMAKTYQLKMEIHNGEFHME	0.927
ITIHQNGVTYHFDNPEEAEKFAQKMAKTYQLKMEIHNGEFHME	0.252
ITIHDNGVTYHFDNPEEAEKFAQKMAKTYQLKMEIHNGEFHME	0.38
ITIHFNGVTYHFDNPEEAEKFAQKMAKTYQLKMEIHNGEFHME	1.24
ITIHGNGVTYHFDNPEEAEKFAQKMAKTYQLKMEIHNGEFHME	0.398
